Assay results reported in patent publication US8314210B2, “Compositions and methods for the generation of MHC class II compounds by peptide exchange” (priority 2002, dated 2012).
Peptide text beside a SMILES is read from it. * marks the point of attachment. Dnp = O=[N+]([O-])c1ccc(*)c([N+](=O)[O-])c1; Ahx = NCCCCCC(=O)O

Key:
Type in all cases: binding
HLA-DR4 (DRA, DRB1*0401) = target: T1, HLA-DR4 (DRA, DRB1*0401) (Homo sapiens, UniProt P01903+P01911, A100K/A169T/F76Y/I96L/K127E/L162R/M171V/N62H/P40V/Q125Y/R42H/S133A/S149N/S66Y/V115G/V209L/W38E); assay: biochemical; conditions: Table 2, DRB1*0401, read-out: (μM) [head prints unit only
T1 construct: were attached to the 3′ end of the DRα and DRβ ectodomains; CLIP peptide […]; made in house

DRB1*0401 = target: T2, DRB1*0401 (Homo sapiens, UniProt P01903+P01911, A100K/A169T/F76Y/I96L/K127E/L162R/M171V/N62H/P40V/Q125Y/R42H/S133A/S149N/S66Y/V115G/V209L/W38E); conditions: 3.3 μM *DR/CLIP, 50 μM DNP-labeled peptide, pH 5.2, overnight 30° C.
T2 construct: were attached to the 3′ end of the DRα and DRβ ectodomains; CLIP peptide […]; made in house

DR4 = target: T3, DR4 (Homo sapiens, UniProt P01903+P01911, A100K/A169T/F76Y/I96L/K127E/L162R/M171V/N62H/P40V/Q125Y/R42H/S133A/S149N/S66Y/V115G/V209L/W38E); assay: Kinetics of CLIP dissociation and peptide association; conditions: DR4, pH 5.2
T3 construct: CLIP peptide […]; made in house

DR4 (DRA, DRB1*0401) = target: T4, DR4 (DRA, DRB1*0401) (Homo sapiens, UniProt P01903+P01911, A100K/A169T/F76Y/I96L/K127E/L162R/M171V/N62H/P40V/Q125Y/R42H/S133A/S149N/S66Y/V115G/V209L/W38E); assay: Competition assay of HCV peptides, biotinylated HA (306-318) on thrombin-cleaved DR4/CLIP; conditions: competitor 30 nM to 10 μM vs 30 nM labeled HA peptide
T4 construct: were attached to the 3′ end of the DRα and DRβ ectodomains; CLIP peptide […]; made in house

## CC[C@H](C)[C@H](NC(=O)[C@H](CC(N)=O)NC(=O)[C@H](CCCCN)NC(=O)[C@H](Cc1ccccc1)NC(=O)[C@H](Cc1ccccc1)NC(=O)[C@H](Cc1c[nH]cn1)NC(=O)[C@@H](NC(=O)[C@@H](NC(=O)CCCCCNc1ccc([N+](=O)[O-])cc1[N+](=O)[O-])C(C)C)C(C)C)C(=O)N[C@H](C(=O)N[C@H](C(=O)N1CCC[C@H]1C(=O)N[C@@H](CCCNC(=N)N)C(=O)N[C@H](C(=O)N1CCC[C@H]1C(=O)N1CCC[C@H]1C(=O)O)[C@@H](C)O)[C@@H](C)O)C(C)C [MBP(88-102)] ({Dnp-Ahx}-VVHFFKNIVTPRTPP-OH)
HLA-DR4 (DRA, DRB1*0401)
  IC50: 0.3 µM

## CC[C@H](C)[C@H](NC(=O)[C@H](CCC(N)=O)NC(=O)[C@H](CCC(=O)O)NC(=O)CCCCCNc1ccc([N+](=O)[O-])cc1[N+](=O)[O-])C(=O)NCC(=O)N[C@@H](Cc1c[nH]c2ccccc12)C(=O)N[C@@H](CCSC)C(=O)N[C@H](C(=O)N[C@@H](CC(N)=O)C(=O)N[C@@H](CC(N)=O)C(=O)N1CCC[C@H]1C(=O)N1CCC[C@H]1C(=O)N[C@H](C(=O)N1CCC[C@H]1C(=O)N[C@H](C(=O)NCC(=O)O)C(C)C)[C@@H](C)CC)[C@@H](C)O [p24 (113-127)] ({Dnp-Ahx}-EQIGWMTNNPPIPVG-OH; C-terminus assumed)
DRB1*0401
  Loading Efficiency (%): 79%

## CC[C@H](C)[C@H](NC(=O)[C@H](CO)NC(=O)[C@@H](NC(=O)[C@@H]1CCCN1C(=O)[C@H](CO)NC(=O)[C@H](Cc1ccc(O)cc1)NC(=O)[C@H](CCSC)NC(=O)[C@H](CCCNC(=N)N)NC(=O)[C@@H](NC(=O)[C@@H](NC(=O)[C@H](CCCCN)NC(=O)[C@H](CC(N)=O)NC(=O)[C@H](CC(C)C)NC(=O)CCCCCNc1ccc([N+](=O)[O-])cc1[N+](=O)[O-])[C@@H](C)CC)C(C)C)C(C)C)C(=O)O [p24 (138-150)/Val] ({Dnp-Ahx}-LNKIVRMYSPVSI-OH; C-terminus assumed)
DRB1*0401
  Loading Efficiency (%): 90%

## CGGGPVSKMRMATPLLMQA [Alexa-488 labeled CLIP peptide]
DR4
  time by which almost all of the bound CLIP peptide had dissociated: ≤ 30 min

## aa 1241-1260: HCV peptide aa 1241-1260 tested for DR4 binding, printed with SEQ ID NO:19 (GYKVLVLNPSVAATL; listed as Homo sapiens)
DR4 (DRA, DRB1*0401)
  binding to DR4: bound to DR4

## aa 1581-1600: HCV peptide aa 1581-1600 tested for DR4 binding, printed with SEQ ID NO:20
DR4 (DRA, DRB1*0401)
  binding to DR4: bound to DR4

## aa 1771-1790: HCV peptide aa 1771-1790 tested for DR4 binding, printed with SEQ ID NO:21 (SGIQYLAGLSTLPGNPAIASL; listed as Homo sapiens)
DR4 (DRA, DRB1*0401)
  binding to DR4: bound to DR4
